Measured values from PMC3344845, “Structure of Bradavidin – C-Terminal Residues Act as Intrinsic Ligands” (PLoS ONE, 2012).

How the values were obtained:
[1] = target: core-bradavidin (Bradyrhizobium japonicum); test: ITC; core-bradavidin in the cell, ligand (Brad-tag or Brad-tag–EGFP) in the syringe, 15°C, 50 mM sodium phosphate pH 7.0, 100 mM NaCl; n is the stoichiometry per subunit
[2] = target: core-bradavidin (Bradyrhizobium japonicum); test: ITC; core-bradavidin, avidin, streptavidin or rhizavidin in the cell, Brad-tag in the syringe, 40°C, 50 mM sodium phosphate pH 7.0, 100 mM NaCl; n is the stoichiometry per subunit
[3] = target: core-bradavidin (Bradyrhizobium japonicum); test: ITC; core-bradavidin in the cell, ligand (Brad-tag or Brad-tag–EGFP) in the syringe, 15°C, 50 mM sodium phosphate pH 7.0, 100 mM NaCl; n is the stoichiometry per subunit; remark: listed apart in the source

Kd [1]: 25 µM
dH [1]: 1.7 kcal mol^–1
stoichiometry N [1]: 0.94
Kd [2]: 26 µM
dH [2]: -4.4 kcal mol^–1
stoichiometry N [2]: 0.62
dH [3]: 4.6 kJ/mol
Binder: SEKLSNTK [Brad-tag (synthetic peptide SEKLSNTK)]
